Laboratory results as given in the Immune Epitope Database (IEDB).
pIC50: −log10 of the molar value.

Key:
HLA-A*02:06 [1] = test: IEDB peptide-MHC binding, cellular MHC/competitive/fluorescence; ≥ and ≤ were set here for values at or beyond the usual limits of such assays
HLA-A*02:03 = test: as above
HLA-A*02:01 [2] = test: as above
HLA-A*02:02 [3] = test: IEDB peptide-MHC binding, purified MHC/competitive/radioactivity; ≥ and ≤ were set here for values at or beyond the usual limits of such assays
HLA-A*68:02 [4] = test: as above
HLA-A*02:02 [5] = test: IEDB peptide-MHC binding, cellular MHC/competitive/fluorescence; ≥ and ≤ were set here for values at or beyond the usual limits of such assays
HLA-A*02:06 [6] = test: IEDB peptide-MHC binding, purified MHC/competitive/radioactivity; ≥ and ≤ were set here for values at or beyond the usual limits of such assays
HLA-A*02:01 [7] = test: as above
HLA-A*68:02 [8] = test: IEDB peptide-MHC binding, cellular MHC/competitive/fluorescence; ≥ and ≤ were set here for values at or beyond the usual limits of such assays
[9] = source organism: Vaccinia virus WR
[10] = source organism: Mammarenavirus choriomeningitidis
[11] = source organism: Mammarenavirus guanaritoense
[12] = source organism: Mammarenavirus brazilense
[13] = source organism: Hepacivirus hominis
[14] = source organism: Mammarenavirus machupoense
[15] = source organism: Influenza A virus

Sequence	pIC50 (HLA-A*02:06 [1]; [9])	pIC50 (HLA-A*02:03; [9])	pIC50 (HLA-A*02:01 [2]; [9])	pIC50 (HLA-A*02:02 [3]; [9])	pIC50 (HLA-A*68:02 [4]; [9])	pIC50 (HLA-A*02:02 [5]; [9])	pIC50 (HLA-A*02:06 [6]; [9])	pIC50 (HLA-A*68:02 [8]; [9])	further results
EIARIENEM	≤ 4.15	4.32	≤ 4.15	6.47	8.08	–	–	–	–
DIIDLLLPST	–	5.18	–	–	6.79	4.84	6.55	–	pIC50 (HLA-A*02:01 [7]; [9]): 6.02
HVLLPFYET	–	4.73	–	–	6.03	4.79	5.76	–	pIC50 (HLA-A*02:01 [7]; [9]): 5.60
FSLGAAVKA	–	–	–	–	–	–	–	–	pIC50 (HLA-A*02:02 [5]; [10]): 5.19; pIC50 (HLA-A*02:03; [10]): 4.87; pIC50 (HLA-A*02:01 [2]; [10]): 4.96; pIC50 (HLA-A*02:06 [6]; [10]): 6.49; pIC50 (HLA-A*68:02 [4]; [10]): 5.75
IVDKFGKNHI	5.08	5.29	4.95	5.53	–	–	–	4.91	–
CNYTRFWYI	–	–	–	–	–	–	–	–	pIC50 (HLA-A*02:02 [5]; [11]): 5.00; pIC50 (HLA-A*02:03; [11]): 5.27; pIC50 (HLA-A*02:06 [6]; [11]): 6.59; pIC50 (HLA-A*68:02 [4]; [11]): 6.46; pIC50 (HLA-A*02:01 [7]; [11]): 5.78
VIVVPVIDRL	4.96	4.23	4.83	5.34	–	–	–	4.50	–
RSASGGVYL	–	–	–	–	–	–	–	–	pIC50 (HLA-A*02:06 [1]; [12]): 4.87; pIC50 (HLA-A*02:03; [12]): 4.84; pIC50 (HLA-A*02:01 [2]; [12]): 4.49; pIC50 (HLA-A*02:02 [3]; [12]): 6.56; pIC50 (HLA-A*68:02 [4]; [12]): 5.35
DIYDAVRAFL	4.92	5.16	5.27	5.83	6.59	–	–	–	–
ALWDSNFFT	4.64	4.55	–	5.98	–	–	–	5.13	pIC50 (HLA-A*02:01 [7]; [9]): 5.43
KLISEKETL	5.12	4.61	4.99	6.08	–	–	–	≤ 4.15	–
ETQSGALEVL	–	4.84	5.29	–	7.24	5.28	5.80	–	–
IAGIILLIL	≤ 4.15	4.28	–	5.38	–	–	–	5.06	pIC50 (HLA-A*02:01 [7]; [9]): 5.49
LLLGLLLLCV	–	–	–	–	–	–	–	–	pIC50 (HLA-A*02:02 [5]; [13]): 4.77; pIC50 (HLA-A*02:03; [13]): 4.99; pIC50 (HLA-A*68:02 [8]; [13]): 4.24; pIC50 (HLA-A*02:06 [6]; [13]): 5.30; pIC50 (HLA-A*02:01 [7]; [13]): 5.66
GTGILFMEM	5.00	5.11	5.20	5.66	–	–	–	4.58	–
IQYRQQLELA	≤ 4.15	5.07	≤ 4.15	5.36	–	–	–	4.89	–
SSWAVHWFS	–	–	–	–	–	–	–	–	pIC50 (HLA-A*02:06 [1]; [14]): 4.33; pIC50 (HLA-A*02:03; [14]): ≤ 4.15; pIC50 (HLA-A*02:01 [2]; [14]): 5.10; pIC50 (HLA-A*02:02 [3]; [14]): 5.33; pIC50 (HLA-A*68:02 [4]; [14]): 5.39

Sequence	pIC50 (HLA-A*02:06 [1]; [9])	pIC50 (HLA-A*02:03; [9])	pIC50 (HLA-A*02:01 [2]; [9])	pIC50 (HLA-A*02:02 [3]; [9])	pIC50 (HLA-A*68:02 [4]; [9])	pIC50 (HLA-A*02:02 [5]; [9])	pIC50 (HLA-A*02:06 [6]; [9])	pIC50 (HLA-A*68:02 [8]; [9])	further results
MNNVVQALT	–	–	–	–	–	–	–	–	pIC50 (HLA-A*02:06 [1]; [11]): ≤ 4.15; pIC50 (HLA-A*02:03; [11]): 4.67; pIC50 (HLA-A*02:01 [2]; [11]): 5.13; pIC50 (HLA-A*02:02 [3]; [11]): 5.64; pIC50 (HLA-A*68:02 [4]; [11]): 6.55
FTHTTAFFNT	–	4.99	5.00	–	5.99	4.76	7.29	–	–
PIPMSRLFM	4.50	5.04	–	5.41	–	–	–	≤ 4.15	–
FTDCRTIDAI	–	4.89	–	–	6.77	5.02	6.12	–	pIC50 (HLA-A*02:01 [7]; [9]): 5.74
FNPMIVELA	–	–	–	–	–	–	–	–	pIC50 (HLA-A*02:06 [1]; [15]): 4.90; pIC50 (HLA-A*02:03; [15]): 4.94; pIC50 (HLA-A*02:01 [2]; [15]): 4.60; pIC50 (HLA-A*02:02 [3]; [15]): 6.03; pIC50 (HLA-A*68:02 [4]; [15]): 5.79
TVDFTDCRT	–	4.57	4.47	–	6.21	5.01	6.47	–	–
LNVSYLCHL	–	–	–	–	–	–	–	–	pIC50 (HLA-A*02:06 [1]; [14]): 4.86; pIC50 (HLA-A*02:03; [14]): 5.15; pIC50 (HLA-A*68:02 [8]; [14]): 4.69; pIC50 (HLA-A*02:01 [2]; [14]): 5.20; pIC50 (HLA-A*02:02 [3]; [14]): 6.53
ELPYVGDTSM	4.53	4.85	4.87	5.38	6.04	–	–	–	–
DTMRIYCSL	–	5.26	–	–	8.89	5.23	5.54	–	pIC50 (HLA-A*02:01 [7]; [9]): 5.47
IVQLPKRGV	–	5.06	4.82	–	5.37	4.92	5.51	–	–
IVPDADPPI	–	4.97	–	–	5.82	5.29	6.56	–	pIC50 (HLA-A*02:01 [7]; [9]): 6.13
CAVIPFDDI	–	5.00	4.77	–	7.64	4.80	5.93	–	–
NVSRVVECLT	5.00	4.84	5.02	5.33	6.26	–	–	–	–
VILPDKIDGL	–	4.97	–	–	–	5.09	6.62	≤ 4.15	pIC50 (HLA-A*02:01 [7]; [9]): 5.75
EVRYIDITNI	–	5.24	5.07	–	7.39	4.89	5.36	–	–
LALWDSNFFT	–	4.70	–	–	–	4.96	5.90	≤ 4.15	pIC50 (HLA-A*02:01 [7]; [9]): 6.09
